From the Immune Epitope Database (IEDB) come the findings set out here.

The term IC50 denotes the concentration that inhibits the measured activity by half. A higher IC50 goes with lower potency. Broadly, the Kd is a measure of binding affinity in units of concentration.

For one test, the target named is HLA-A*02:01. The test can be described thus: IEDB peptide-MHC binding, purified MHC/competitive/fluorescence; ≥ and ≤ were set here for values at or beyond the usual limits of such assays.
The next test has as its target HLA-A*24:02. Described as above.
For another test, the target named is HLA-B*18:01. The test can be described thus: IEDB peptide-MHC binding, purified MHC/competitive/radioactivity; filed as Kd, often an IC50 or EC50 that approximates it; ≥ and ≤ were set here for values at or beyond the usual limits of such assays.
The target of another test is HLA-B*40:01. The description is as above.
A further test deals with HLA-B*40:02. The description is as above.
Another test addresses HLA-B*44:02. Described as above.
Another test concerns the target HLA-B*44:03. The description is as above.
For a further test, the target named is HLA-B*45:01. Described as above.
A further test deals with HLA-A*03:01. The test can be described thus: IEDB peptide-MHC binding, purified MHC/competitive/fluorescence; filed as Kd, often an IC50 or EC50 that approximates it; ≥ and ≤ were set here for values at or beyond the usual limits of such assays.
[1] abbreviates: source organism: Sudan ebolavirus.
The mark [2] stands for this setting: source organism: Zaire ebolavirus.
Setting [3] is: source organism: SARS coronavirus Tor2.
The mark [4] stands for this setting: source organism: Mammarenavirus brazilense.
Where [5] appears, read: source organism: Vaccinia virus.
Setting [6] is: source organism: Lassa virus Josiah.
The mark [7] stands for this setting: source organism: Lymphocytic choriomeningitis virus (strain Armstrong).
Setting [8] is: source organism: Lymphocytic choriomeningitis virus (strain WE).

In the case of TTGRLIWTL, the IC50 with HLA-A*02:01 (setting [1]) came to 2 µM; in the test with HLA-A*24:02 (setting [1]) it was 0.309 µM.
Take VYKLDISEA: the IC50 with HLA-A*24:02 (setting [2]) came to 44 µM.
In the case of SEFDRDAAM, the Kd with HLA-B*18:01 (setting [3]) was found to be 2.51 µM; with HLA-B*40:01 (setting [3]), 0.21 µM; in the test with HLA-B*40:02 (setting [3]), 1010 nM; with HLA-B*44:02 (setting [3]) it was 0.745 µM; in the test with HLA-B*44:03 (setting [3]), 0.532 µM; with HLA-B*45:01 (setting [3]) it was 18300 nM.
Turning to KEPGVSRELL, the Kd in the test with HLA-B*18:01 (setting [4]) was no less than 70.4 µM; with HLA-B*40:01 (setting [4]) it was 1.32 µM; in the test with HLA-B*40:02 (setting [4]), 1060 nM; with HLA-B*44:02 (setting [4]), no less than 70.2 µM; with HLA-B*44:03 (setting [4]) it was no less than 70.1 µM; with HLA-B*45:01 (setting [4]), no less than 70000 nM.
Consider KQLQQYAES, for which the results for the IC50 in the test with HLA-A*02:01 (setting [2]) and with HLA-A*24:02 (setting [2]) were no less than 187 µM and 20.8 µM, respectively.
With EEAARCMRSL, the Kd with HLA-B*18:01 (setting [3]) was determined as 6.89 µM; with HLA-B*40:01 (setting [3]) it was 0.802 µM; in the test with HLA-B*40:02 (setting [3]), 184 nM; with HLA-B*44:02 (setting [3]) it was 0.164 µM; in the test with HLA-B*44:03 (setting [3]), 0.406 µM; in the test with HLA-B*45:01 (setting [3]) it was 85 nM.
In the test with HLA-A*03:01 (source organism: Coxiella burnetii RSA 493), RLSVKTFVH registered a Kd of 27.6 nM.
KVYTMDGEY gave a Kd with HLA-A*03:01 (source organism: West Nile virus) of 37.6 nM.
Take IDYRHYSASF: the equilibrium dissociation constant (Kd) with HLA-B*18:01 (setting [3]) was no less than 31.5 µM; with HLA-B*40:01 (setting [3]), no less than 44.6 µM; with HLA-B*40:02 (setting [3]), 2670 nM; with HLA-B*44:02 (setting [3]) it was 5.84 µM; in the test with HLA-B*44:03 (setting [3]), no less than 36.5 µM; with HLA-B*45:01 (setting [3]), 978 nM.
Regarding DKLVDPINY, the Kd with HLA-B*18:01 (source organism: Variola virus) is no less than 77.5 µM; in the test with HLA-B*40:01 (source organism: Variola virus) it was 15.5 µM; with HLA-B*40:02 (source organism: Variola virus), no less than 77200 nM; in the test with HLA-B*44:02 (source organism: Variola virus), no less than 77.9 µM; in the test with HLA-B*44:03 (source organism: Variola virus) it was no less than 78.1 µM; with HLA-B*45:01 (source organism: Variola virus) it was no less than 77700 nM.
Consider PTLTTPENI, for which the IC50 with HLA-A*02:01 (setting [1]) is no less than 269 µM; in the test with HLA-A*24:02 (setting [1]), 53.7 µM.
In turn, MVAWRVTMH displayed a Kd with HLA-A*03:01 (source organism: Toxoplasma gondii) of 48.1 nM.
In the case of KYNTPCPNC, the 50% inhibitory concentration (IC50) with HLA-A*24:02 (setting [5]) amounted to 35.5 µM.
For the sequence EEILGTVSW, the dissociation constant Kd in the test with HLA-B*18:01 (setting [3]) is 0.0783 µM; with HLA-B*40:01 (setting [3]), 3.08 µM; with HLA-B*40:02 (setting [3]) it was 378 nM; with HLA-B*44:02 (setting [3]), 0.00319 µM; in the test with HLA-B*44:03 (setting [3]), 0.00258 µM; with HLA-B*45:01 (setting [3]), 1550 nM.
With REPTDLKQF, the dissociation constant Kd with HLA-B*18:01 (setting [6]) is no less than 55.4 µM; with HLA-B*40:01 (setting [6]) it was 2.88 µM; with HLA-B*40:02 (setting [6]), 1000 nM; in the test with HLA-B*44:02 (setting [6]) it was 1.51 µM; in the test with HLA-B*44:03 (setting [6]), 8.46 µM; with HLA-B*45:01 (setting [6]), no less than 77700 nM.
Consider PEANMDQESF, for which the Kd was no less than 53.2 µM in the test with HLA-B*18:01 (setting [3]); 4.2 µM with HLA-B*40:01 (setting [3]); 10100 nM with HLA-B*40:02 (setting [3]); 7.54 µM with HLA-B*44:02 (setting [3]); 10.6 µM with HLA-B*44:03 (setting [3]); no less than 26000 nM with HLA-B*45:01 (setting [3]).
With YEAMYTPHT, the Kd is 2.8 µM with HLA-B*18:01 (setting [3]); 14.4 µM with HLA-B*40:01 (setting [3]); 242 nM with HLA-B*40:02 (setting [3]); no less than 21.8 µM with HLA-B*44:02 (setting [3]); 13 µM in the test with HLA-B*44:03 (setting [3]); 149 nM with HLA-B*45:01 (setting [3]).
Regarding TLATISTSP, the IC50 in the test with HLA-A*02:01 (setting [2]) was 29.7 µM; with HLA-A*24:02 (setting [2]), no less than 88.9 µM.
ADNMITEML: the Kd is no less than 77.5 µM with HLA-B*18:01 (setting [7]); 19.5 µM in the test with HLA-B*40:01 (setting [7]); 1410 nM with HLA-B*40:02 (setting [7]); 17.7 µM in the test with HLA-B*44:02 (setting [7]); 17.8 µM in the test with HLA-B*44:03 (setting [7]); no less than 77700 nM with HLA-B*45:01 (setting [7]).
On to EGIYTEGLM, for which the concentration for half-maximal inhibition (IC50) with HLA-A*02:01 (setting [1]) was 33.4 µM; with HLA-A*24:02 (setting [1]) it was 15 µM.
In turn, KISGSFSPH yielded an equilibrium dissociation constant (Kd) in the test with HLA-A*03:01 (source organism: Cryptosporidium parvum Iowa II) of 36.9 nM.
TLYDRYLIK registered a Kd in the test with HLA-A*03:01 (source organism: Campylobacter lari RM2100) of 10.9 nM.
For YEQQTVNST, the Kd with HLA-B*18:01 (setting [4]) was 1.13 µM; in the test with HLA-B*40:01 (setting [4]), no less than 54.2 µM; in the test with HLA-B*40:02 (setting [4]) it was 78.3 nM; with HLA-B*44:02 (setting [4]) it was no less than 34.1 µM; in the test with HLA-B*44:03 (setting [4]), no less than 78.1 µM; in the test with HLA-B*45:01 (setting [4]), 1210 nM.
Consider KEPVESCPLM, for which the Kd with HLA-B*18:01 (setting [8]) was no less than 34.4 µM; in the test with HLA-B*40:01 (setting [8]), 11.8 µM; with HLA-B*40:02 (setting [8]), 208 nM; in the test with HLA-B*44:02 (setting [8]), 14.3 µM; in the test with HLA-B*44:03 (setting [8]), no less than 40.8 µM; with HLA-B*45:01 (setting [8]), no less than 70000 nM.
As for HEFVDEFYA, the equilibrium dissociation constant (Kd) with HLA-B*18:01 (setting [3]) is 3.01 µM; with HLA-B*40:01 (setting [3]), 1.19 µM; with HLA-B*40:02 (setting [3]), 55 nM; in the test with HLA-B*44:02 (setting [3]), 18.6 µM; with HLA-B*44:03 (setting [3]), 5.58 µM; with HLA-B*45:01 (setting [3]), 157 nM.
In turn, RLSVKTFVK returned a Kd with HLA-A*03:01 (source organism: Francisella tularensis subsp. tularensis FSC198) of 25.3 nM.
Regarding SYRNKPSIA, in the test with HLA-A*24:02 (setting [5]), the IC50 turned out to be 43.8 µM.
QLAFFVAGH showed a Kd in the test with HLA-A*03:01 (source organism: Yersinia pestis Antiqua) of 198 nM.
Turning to ETMEVVQQTR, the Kd with HLA-A*03:01 (source organism: Influenza A virus (A/Fort Monmouth/1/1947-mouse adapted(H1N1))) was no less than 20000 nM.
